# Key:
# [1] = tested on: T1, SAStide-Cy5 (Syk Artificial Substrate peptide conjugated with Cy5)
# T1 sequence: GGDEEDYEEPDEPGGCGG
# [2] = tested on: T2, 5-FAM-SFAStide-A (Src-Family kinase Artificial Substrate peptide)
# T2 sequence: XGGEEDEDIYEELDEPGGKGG
Substance,"ELISA-based chemifluorescence (anti-phosphotyrosine 4G10, HRP secondary, Amplex Red) of an in vitro kinase reaction [1]",TR-LRET emission (Cy5 fluorescence signal) over the time course of an in vitro kinase reaction [1],TR-LRET emission (5-FAM fluorescence signal) in the in vitro kinase reaction with Syk only [2]
Syk-EGFP,the ELISA-based assay displayed increasing fluorescent signal over time for the appropriately match substrates,,
Syk-His6 (His6-tagged spleen tyrosine kinase),,TR-LRET emission spectra for each respective biosensor displayed an increase in the conjugated dye's fluorescence signal,with minimal bleed through or background interference from the fluorophore attached to the other biosensor
